Two sequences from patent US20050202434 can be followed below.

The data set deals with T1, metallo-beta-lactamase (beta-lactamase II) 5/B/6 (Bacillus cereus) (UniProt P14488).
T1 sequence: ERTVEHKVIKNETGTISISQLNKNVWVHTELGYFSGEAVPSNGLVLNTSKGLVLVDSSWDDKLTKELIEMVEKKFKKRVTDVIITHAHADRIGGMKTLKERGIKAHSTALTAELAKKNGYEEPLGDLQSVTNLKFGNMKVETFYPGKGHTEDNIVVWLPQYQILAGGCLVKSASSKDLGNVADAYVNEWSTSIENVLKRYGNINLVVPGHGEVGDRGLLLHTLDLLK
Briefly: inhibition.

“ANCNANNNTTNNNTNGNNGNNCATNNNNAA [round 16 SELEX pool (consensus 30N)]” had an activity (% control activity) of 47. The sequence “GCGCCATATGCGCGCGNNNNNNNNNNNNNNNNNNNNNNNNNNNNNNCGCGCGGAGCTCGCG [initial random 61-mer pool]” showed an activity (% control activity) of 100.
